Measurements taken from publication PMC7118173 (Nature Communications, 2020).

Target: the molecule itself
Experiment: negative stain electron microscopy; MtbSepFΔML 50 µM in 50 mM HEPES pH 7.4, 300 mM KCl, 10 mM MgCl2

B1: M. tuberculosis SepFΔML (domain or fragment)
chain: EDGHPLSKITTLRPKDYSEARTIGERFRDGSPVIMDLVSMDNADAKRLVDFAAGLAFALRGSFDKVATKVFLLSPADVDVSPEERRRIAETGFYAYQ
notes: also called MtbSepFΔML
binding result: binds
